Assay results taken from patent publication US12371456B2, “Proteins for the treatment of epithelial barrier function disorders” (Genevive, Inc., priority 2017, dated 2025).

Tests used:
[1] = tested on: HCT8 enterocytes and HT29-MTX goblet cells (epithelial monolayer) co-cultured with U937 monocytes; assay: Co-culture trans-epithelial electrical resistance (TEER) assay, barrier disruption by heat killed E. coli; assay type: cell-based, human
Description: Assays were performed as described below in trans-well plates where co-cultures of multiple cell types were performed utilizing a permeable membrane to separate cells. In the apical (top) chamber, human colonic epithelial cells, consisting of a mixture of enterocytes and goblet cells, were cultured until cells obtained tight junction formation and barrier function capacity as assessed by measurement of trans-epithelial electrical resistance (TEER). In the basolateral chamber, monocytes were cultured separately. Epithelial cells were primed with inflammatory cytokines.
Cell culture. The HCT8 human enterocyte cell line (ATCC Cat. No. CCL-244) was maintained in RPMI-1640 medium supplemented with 10% fetal bovine serum, 100 IU/ml penicillin, 100 µg/ml streptomycin, 10 µg/ml gentamicin and 0.25 µg/ml amphotericin (cRPMI). HT29-MTX human goblet cells (Sigma-Aldrich (St. Louis, MO; Cat. No. 12040401) were maintained in DMEM medium with 10% fetal bovine serum, 100 IU/ml penicillin, 100 µg/ml streptomycin, 10 µg/ml gentamicin and 0.25 µg/ml amphotericin (cDMEM). Epithelial cells were passaged by trypsinization and were used between 5 and 15 passages following thawing from liquid nitrogen stocks. U937 monocytes (ATCC Cat. No. 700928) were maintained in cRPMI medium as a suspension culture, and split by dilution as needed to maintain cells between 5×10^5 and 2×10^6 cells/ml. U937 cells were used up to passage 18 following thawing from liquid nitrogen stocks.
Epithelial cell culture. A mixture of HCT8 enterocytes and HT29-MTX goblet cells were plated at a 9:1 ratio, respectively, in the apical chamber of the transwell plate as described previously (Berget et al., 2017, Int J Mol Sci, 18:1573; Beduneau et al., 2014, Eur J Pharm Biopharm, 87:290-298). […] Epithelial cells were trypsinized from culture flasks and viable cells determined by trypan blue counting. […]
Co-culture assay. […] Trans-epithelial electrical resistance (TEER) readings were measured after the IFN-γ treatment and were used as the pre-treatment TEER values. […]

[2] = tested on: TNF-α; assay: TNF-α production by monocytes in co-culture TEER assay (Luminex); assay type: cell-based, human; conditions: pre-incubated 6 hours prior to HK E. coli; FIG. 2A
Description: Production of the pro-inflammatory cytokines TNF-α and IL-23 by monocytes was measured in the tissue culture supernatant from the basolateral chamber of the co-culture TEER assay performed in Example 2. Following TEER readings, the supernatants were centrifuged at 10,000 g for 5 minutes at 4° C. to remove cell debris. Luminex analysis was performed according to the manufacturer's instructions (Magpix instrument and xPonent software version 4.2; Luminex Corporation (Austin, TX)). Luminex analysis was performed to determine the pg/ml concentration of TNF-α and IL-23 produced by monocytes. Luminex analysis utilizes a bead-based system for quantification of multiple cytokines from a single sample. Like an ELISA, Luminex beads are coated with a capture antibody, and incubation with samples allows the target to bind to the capture antibody. Beads are washed and incubated with a fluorescently labeled detection antibody for quantification of bound target. Cytometric analysis is used to differentiate bead populations, which are loaded with differential fluorescent dyes, and to quantify cytokine levels by measuring detection antibody signal. TNF-α production in untreated cells and cells pre-incubated with SG-14 for 6 hours prior to HK E. coli treatment were normalized to pg/ml concentrations elicited by HK E. coli which was set to 1.0. […]

[3] = tested on: IL-10; assay: IL-10 production by monocytes in co-culture TEER assay (Luminex); assay type: cell-based, human; conditions: pre-incubated 6 hours prior to HK E. coli; FIG. 3
Description: IL-10 production was measured in tissue culture supernatant from the basolateral chamber of the co-culture TEER assay described in Example 2 containing monocytes. Luminex analysis was performed to determine the pg/ml concentration of IL-10 produced by the monocytes. IL-10 production in untreated cells and cells pre-incubated with SG-14 for 6 hours prior to HK E. coli treatment were normalized to pg/ml concentrations elicited by HK E. coli which was set to 1.0. Pre-incubation with SG-14 increased IL-10 production to 1.21. The graph in FIG. 3 represents data pooled from two individual experiments (n=6).

[4] = tested on: DSS model of inflammatory bowel disease; assay: DSS model: 4 KDa-FITC dextran translocation across the epithelial barrier; assay type: in vivo, C57BL/6 mice; conditions: 50 nmoles/kg i.p. b.i.d., 2.5% DSS 6 days; FIG. 6
Description: Eight-week old C57BL/6 mice were housed 5 animals were cage and given food and water ad libitum for 7 days. Following the 7-day acclimation period, treatments were initiated concurrently with addition of 2.5% DSS to the drinking water. […] The mice were treated with 2.5% dextran sodium sulfate (DSS) in their drinking water for 6 days. Treatments were continued with SG-14 or […]-GLP2 twice a day (b.i.d.) in the morning and evening (every 8 and 16 hr) with i.p. injections at 50 nmoles/kg. Fresh 2.5% DSS drinking water was prepared every 2 days. On day six, mice were fasted for four hours and then orally gavaged with 600 mg/kg 4 KDa dextran labeled with fluorescein isothiocyanate (FITC) [4 KDa-FITC]. One hour after the 4 KDa-FITC gavage mice were euthanized, blood was collected and FITC signal was measured in serum. […] Results are shown in FIG. 6, and are presented as mean SEM. The graph in FIG. 6 represents data pooled from the single experiment (n=10).

[5] = tested on: DSS model of inflammatory bowel disease; assay: DSS model: colon length and colon weight to length ratio; assay type: in vivo, C57BL/6 mice; conditions: DSS treated mice
Description: Eight-week old C57BL/6 mice were housed 5 animals were cage and given food and water ad libitum for 7 days. Following the 7-day acclimation period, treatments were initiated concurrently with addition of 2.5% DSS to the drinking water. […] The mice were treated with 2.5% dextran sodium sulfate (DSS) in their drinking water for 6 days. Treatments were continued with SG-14 or […]-GLP2 twice a day (b.i.d.) in the morning and evening (every 8 and 16 hr) with i.p. injections at 50 nmoles/kg. Fresh 2.5% DSS drinking water was prepared every 2 days. Colon length was measured in mice included in the DSS model described in Example 7. […] The graphs in FIG. 10 and FIG. 11 represent data pooled from the single experiment (n=10).

[6] = tested on: DSS model of inflammatory bowel disease; assay: DSS model: colonic tissue histopathology score; assay type: in vivo, C57BL/6 mice; conditions: FIG. 12A
Description: Eight-week old C57BL/6 mice were housed 5 animals were cage and given food and water ad libitum for 7 days. Following the 7-day acclimation period, treatments were initiated concurrently with addition of 2.5% DSS to the drinking water. […] The mice were treated with 2.5% dextran sodium sulfate (DSS) in their drinking water for 6 days. Treatments were continued with SG-14 or Gly2-GLP2 twice a day (b.i.d.) in the morning and evening (every 8 and 16 hr) with i.p. injections at 50 nmoles/kg. Fresh 2.5% DSS drinking water was prepared every 2 days.
Colon tissue was collected from mice in the DSS model described in this Example 7. Tissues were fixed in 10% formalin, processed for paraffin embedding and sectioned. Tissue sections were stained with Hematoxylin and Eosin and scored for pathology by a pathologist specializing in gastrointestinal disease. The scoring system used multiple pathology readouts including inflammation, edema, transmural inflammation, mucosal hyperplasia, dysplasia, loss of mucosal architecture, the extent of tissue affected, and the extent of tissue affected by the most severe pathology. Each readout was scored on a scale of 0-4 and a total score was generated by totaling all readout values for each treatment. […] The graph in FIG. 12A and images in […] represent data from the single experiment (n=10).

B1: SG-14: Eubacterium eligens protein comprising SEQ ID NO:3; tested form expressed in E. coli, with exogenous GPLG at N-terminus and PHRD at C-terminus (protein)
chain: GCARNSTSTTTASGGETTITSAITKEDTDVTHADDAENYRVSITGDFTVTSDTSDGVTQSGSVYTITKAGEYTVTGLLSEGQLIVDAGNENEVTIVLNGTSITCSSGSPIYVKNASEVKIKSEENSFNEVIDNRNEATEDSSDDAGNAAIYATCDLKLVGKGALVVTGNYNNGIQSKDDLSIKNVIVKVTAVNNAVKVNDAVDIESGNIIAISAKGDGIKTSNSSISNKGNQKGIVTITSGNIDIYAACDGIDASYGADISGDGNLNIYTDTYSEYSEEVTSSGSSSGTSSGRDSSANKSASANTVSYVATSDTIANAPSGFGGGNMGSGNAPDMSNGNAPNMNGSSDRNKTGGNRPGMPGDFNESGNSSGQSYSTKGIKAESEINISGFTINICSTDDGIHANSDSGVLETGEDGKGTIVINGGSITISSGDDGMHADKQLDVNDGYINVVTSYEGLEAMTINLNGGKIYVYATDDGINACTGDGKTSPIVNVTGGYIDVTTTSGDTDGIDSNGNYVQTGGFVLVKGGSSSGNVSGSIDVDGTVTITGGTCVALGGVCETPVNSANAYVLGSVSFSSGSYSLKDSSGNEVISFTVDGSFSNGWICSDTLTTGSSYTLYRGADSIADWTQE
modifications: N-terminal GPLG and C-terminal PHRD
- TEER of epithelial cell barrier (percent of untreated) ([1]; SG-14 1 pg/ml (40 nM) added 1 hour (FIG. 1A; text also says 30 minutes) before HK E. coli, HK E. coli alone 70.0%): 72.2%
- TEER of epithelial cell barrier (percent of untreated) ([1]; SG-14 1 pg/ml (40 nM) pre-incubated 6 hours before HK E. coli (FIG. 1B), without SG-14 71.4%): 78.7%
- TNF-α production normalized to HK E. coli (set to 1.0) [2]: 0.77
- IL-10 production normalized to HK E. coli (set to 1.0) [3]: 1.21
- 4 KDa-FITC dextran in serum vs DSS mice treated with vehicle [4]: significant reduction
- Magnitude of 4 KDa-FITC dextran translocation vs Gly2-GLP2 [4]: even lower than the positive control
- Colon length ([5]; FIG. 10): prevented colon shortening
- Ratio between colon weight and length ([5]; FIG. 11): significant reduction
- Colon pathology scores vs positive control Gly2-GLP2 [6]: further reduced colon pathology scores significantly
- Colonic pathology (total histopathology score) vs DSS ([6]; H&E sections, readouts scored 0-4): significantly reduced colonic pathology
